What follows are binders tested against human plasma kallikrein (human, UniProt P03952 20-390; P03952 391-638) (assay: cell-based or functional assay).
Chain of human plasma kallikrein (P03952 20-390, chain 1 of 2): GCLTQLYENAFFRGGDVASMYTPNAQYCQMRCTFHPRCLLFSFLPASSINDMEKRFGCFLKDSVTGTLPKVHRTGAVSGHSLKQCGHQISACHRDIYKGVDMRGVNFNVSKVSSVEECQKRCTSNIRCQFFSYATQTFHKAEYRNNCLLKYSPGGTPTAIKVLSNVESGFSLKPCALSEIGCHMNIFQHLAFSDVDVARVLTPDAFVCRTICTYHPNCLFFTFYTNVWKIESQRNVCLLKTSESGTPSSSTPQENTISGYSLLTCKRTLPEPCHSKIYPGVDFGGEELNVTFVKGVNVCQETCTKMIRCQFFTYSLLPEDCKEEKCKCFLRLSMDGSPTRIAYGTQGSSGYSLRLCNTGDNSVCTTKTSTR
Chain of human plasma kallikrein (P03952 391-638, chain 2 of 2): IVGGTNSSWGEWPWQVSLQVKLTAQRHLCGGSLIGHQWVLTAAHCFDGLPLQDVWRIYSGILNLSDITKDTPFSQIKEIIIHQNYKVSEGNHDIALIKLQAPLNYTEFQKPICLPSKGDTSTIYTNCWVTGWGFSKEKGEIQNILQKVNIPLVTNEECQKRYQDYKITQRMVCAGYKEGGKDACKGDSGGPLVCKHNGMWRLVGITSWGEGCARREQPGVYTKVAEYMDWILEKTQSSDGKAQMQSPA

| % inhibition at 10 nM [%] | Binder |
| --- | --- |
| 90.1 | M208-B01 (Fab, V domains shown) VH: EVQLLESGGGLVQPGGSLRLSCAASGFTFSHYLMTWVRQAPGKGLEWVSYISPSGGHTIYADSVKGRFTISRDNSKNTLYLQMNSLRAEDTAVYYCARVARGIAARSRTSFFDQWGQGTLVTVSS VL: DIQMTQSPGTLSLSPGERATLSCRTSQFVNSNYLAWYQQTPGQAPRLLIYGASSRATGIPDRFSGTGYGTDFTLTISRLEPEDYGTYYCQQSSRTPWTFGQGTRVEIK |
| 85.9 | M205-H08 (Fab, V domains shown) VH: EVQLLESGGGLVQPGGSLRLSCAASGFTFSDYMMMWVRQAPGKGLEWVSSIVPSGGHTQYADSVKGRFTISRDNSKNTLYLQMNSLRAEDTAVYYCARVARGIAARSRTSYFDYWGQGTLVTVSS VL: DIQMTQSPGTLSLSPGERATLSCRTSQFVNSNYLAWYQQTPGQAPRLLIYGASSRATGIPDRFSGTGYGTDFTLTISRLEPEDYGTYYCQQSSRTPWTFGQGTRVEIK |
| 78.2 | M205-E11 (Fab, V domains shown) VH: EVQLLESGGGLVQPGGSLRLSCAASGFTFSNYTMGWVRQAPGKGLEWVSSISPSGGKTDYADSVKGRFTISRDNSKNTLYLQMNSLRAEDTAVYYCARVARGIAARSRTSYFDYWGQGTLVTVSS VL: DIQMTQSPGTLSLSPGERATLSCRTSQFVNSNYLAWYQQTPGQAPRLLIYGASSRATGIPDRFSGTGYGTDFTLTISRLEPEDYGTYYCQQSSRTPWTFGQGTRVEIK |
| 84.1 | M204-E12 (Fab, V domains shown) VH: EVQLLESGGGLVQPGGSLRLSCAASGFTFSTYMMQWVRQAPGKGLEWVSYIGPSGGKTDYADSVKGRFTISRDNSKNTLYLQMNSLRAEDTAVYYCARVARGIAARSRTSYFDYWGQGTLVTVSS VL: DIQMTQSPGTLSLSPGERATLSCRTSQFVNSNYLAWYQQTPGQAPRLLIYGASSRATGIPDRFSGTGYGTDFTLTISRLEPEDYGTYYCQQSSRTPWTFGQGTRVEIK |
| 85.3 | M209-H09 (Fab, V domains shown) VH: EVQLLESGGGLVQPGGSLRLSCAASGFTFSHYLMTWVRQAPGKGLEWVSYISPSGGHTIYADSVKGRFTISRDNSKNTLYLQMNSLRAEDTAVYYCARVARGIAARSRTVYFDHWGQGTLVTVSS VL: DIQMTQSPGTLSLSPGERATLSCRTSQFVNSNYLAWYQQTPGQAPRLLIYGASSRATGIPDRFSGTGYGTDFTLTISRLEPEDYGTYYCQQSSRTPWTFGQGTRVEIK |
| 80.3 | M205-A02 (Fab, V domains shown) VH: EVQLLESGGGLVQPGGSLRLSCAASGFTFSTYLMAWVRQAPGKGLEWVSGIVSSGGRTLYADSVKGRFTISRDNSKNTLYLQMNSLRAEDTAVYYCARVARGIAARSRTSYFDYWGQGTLVTVSS VL: DIQMTQSPGTLSLSPGERATLSCRTSQFVNSNYLAWYQQTPGQAPRLLIYGASSRATGIPDRFSGTGYGTDFTLTISRLEPEDYGTYYCQQSSRTPWTFGQGTRVEIK |
| 89.8 | M209-G07 (Fab, V domains shown) VH: EVQLLESGGGLVQPGGSLRLSCAASGFTFSHYLMTWVRQAPGKGLEWVSYISPSGGHTIYADSVKGRFTISRDNSKNTLYLQMNSLRAEDTAVYYCARVARGIAARSRTSYFDTWGQGTLVTVSS VL: DIQMTQSPGTLSLSPGERATLSCRTSQFVNSNYLAWYQQTPGQAPRLLIYGASSRATGIPDRFSGTGYGTDFTLTISRLEPEDYGTYYCQQSSRTPWTFGQGTRVEIK |
| 82.5 | M206-H05 (Fab, V domains shown) VH: EVQLLESGGGLVQPGGSLRLSCAASGFTFSGYKMQWVRQAPGKGLEWVSSISPSGGITMYADSVKGRFTISRDNSKNTLYLQMNSLRAEDTAVYYCARVARGIAARSRTSYFDYWGQGTLVTVSS VL: DIQMTQSPGTLSLSPGERATLSCRTSQFVNSNYLAWYQQTPGQAPRLLIYGASSRATGIPDRFSGTGYGTDFTLTISRLEPEDYGTYYCQQSSRTPWTFGQGTRVEIK |
| 85.5 | M210-H01 (Fab, V domains shown) VH: EVQLLESGGGLVQPGGSLRLSCAASGFTFSHYLMTWVRQAPGKGLEWVSYISPSGGHTIYADSVKGRFTISRDNSKNTLYLQMNSLRAEDTAVYYCARVARGIAARSRNSQQDYWGQGTLVTVSS VL: DIQMTQSPGTLSLSPGERATLSCRTSQFVNSNYLAWYQQTPGQAPRLLIYGASSRATGIPDRFSGTGYGTDFTLTISRLEPEDYGTYYCQQSSRTPWTFGQGTRVEIK |
| 78.5 | M208-A10 (Fab, V domains shown) VH: EVQLLESGGGLVQPGGSLRLSCAASGFTFSHYLMTWVRQAPGKGLEWVSYISPSGGHTIYADSVKGRFTISRDNSKNTLYLQMNSLRAEDTAVYYCARVARGIAARSRTSQFDHWGQGTLVTVSS VL: DIQMTQSPGTLSLSPGERATLSCRTSQFVNSNYLAWYQQTPGQAPRLLIYGASSRATGIPDRFSGTGYGTDFTLTISRLEPEDYGTYYCQQSSRTPWTFGQGTRVEIK |
| 86.7 | M208-G02 (Fab, V domains shown) VH: EVQLLESGGGLVQPGGSLRLSCAASGFTFSHYLMTWVRQAPGKGLEWVSYISPSGGHTIYADSVKGRFTISRDNSKNTLYLQMNSLRAEDTAVYYCARVARGIADRSRTSYSDYWGQGTLVTVSS VL: DIQMTQSPGTLSLSPGERATLSCRTSQFVNSNYLAWYQQTPGQAPRLLIYGASSRATGIPDRFSGTGYGTDFTLTISRLEPEDYGTYYCQQSSRTPWTFGQGTRVEIK |
| 89.5 | M204-A02 (Fab, V domains shown) VH: EVQLLESGGGLVQPGGSLRLSCAASGFTFSDYMMTWVRQAPGKGLQWVSYISPSGGLTSYADSVKGRFTISRDNSKNTLYLQMNSLRAEDTAVYYCARVARGIAARSRTSYFDYWGQGTLVTVSS VL: DIQMTQSPGTLSLSPGERATLSCRTSQFVNSNYLAWYQQTPGQAPRLLIYGASSRATGIPDRFSGTGYGTDFTLTISRLEPEDYGTYYCQQSSRTPWTFGQGTRVEIK |
| 82.6 | M209-H03 (Fab, V domains shown) VH: EVQLLESGGGLVQPGGSLRLSCAASGFTFSHYLMTWVRQAPGKGLEWVSYISPSGGHTIYADSVKGRFTISRDNSKNTLYLQMNSLRAEDTAVYYCARVAQGIAARSRTTQFDYWGQGTLVTVSS VL: DIQMTQSPGTLSLSPGERATLSCRTSQFVNSNYLAWYQQTPGQAPRLLIYGASSRATGIPDRFSGTGYGTDFTLTISRLEPEDYGTYYCQQSSRTPWTFGQGTRVEIK |
| 87.3 | M209-B11 (Fab, V domains shown) VH: EVQLLESGGGLVQPGGSLRLSCAASGFTFSHYLMTWVRQAPGKGLEWVSYISPSGGHTIYADSVKGRFTISRDNSKNTLYLQMNSLRAEDTAVYYCARVARGIAARSRTRYIDQWGQGTLVTVSS VL: DIQMTQSPGTLSLSPGERATLSCRTSQFVNSNYLAWYQQTPGQAPRLLIYGASSRATGIPDRFSGTGYGTDFTLTISRLEPEDYGTYYCQQSSRTPWTFGQGTRVEIK |
| 86.8 | M209-C02 (Fab, V domains shown) VH: EVQLLESGGGLVQPGGSLRLSCAASGFTFSHYLMTWVRQAPGKGLEWVSYISPSGGHTIYADSVKGRFTISRDNSKNTLYLQMNSLRAEDTAVYYCARVARGIAYRRRTSYFDYWGQGTLVTVSS VL: DIQMTQSPGTLSLSPGERATLSCRTSQFVNSNYLAWYQQTPGQAPRLLIYGASSRATGIPDRFSGTGYGTDFTLTISRLEPEDYGTYYCQQSSRTPWTFGQGTRVEIK |
| 86.5 | M205-C11 (Fab, V domains shown) VH: EVQLLESGGGLVQPGGSLRLSCAASGFTFSQYMMMWVRQAPGKGLEWVSRISPSGGSTLYADSVKGRFTISRDNSKNTLYLQMNSLRAEDTAVYYCARVARGIAARSRTSYFDYWGQGTLVTVSS VL: DIQMTQSPGTLSLSPGERATLSCRTSQFVNSNYLAWYQQTPGQAPRLLIYGASSRATGIPDRFSGTGYGTDFTLTISRLEPEDYGTYYCQQSSRTPWTFGQGTRVEIK |
| 77.6 | M206-E02 (Fab, V domains shown) VH: EVQLLESGGGLVQPGGSLRLSCAASGFTFSEYMMMWVRQAPGKGLEWVSVISPSGGQTHYADSVKGRFTISRDNSKNTLYLQMNSLRAEDTAVYYCARVARGIAARSRTSYFDYWGQGTLVTVSS VL: DIQMTQSPGTLSLSPGERATLSCRTSQFVNSNYLAWYQQTPGQAPRLLIYGASSRATGIPDRFSGTGYGTDFTLTISRLEPEDYGTYYCQQSSRTPWTFGQGTRVEIK |
| 77.1 | M205-H01 (Fab, V domains shown) VH: EVQLLESGGGLVQPGGSLRLSCAASGFTFSNYTMQWVRQAPGKGLQWVSYISPSGGYTGYADSVKGRFTISRDNSKNTLYLQMNSLRAEDTAVYYCARVARGIAARSRTSYFDYWGQGTLVTVSS VL: DIQMTQSPGTLSLSPGERATLSCRTSQFVNSNYLAWYQQTPGQAPRLLIYGASSRATGIPDRFSGTGYGTDFTLTISRLEPEDYGTYYCQQSSRTPWTFGQGTRVEIK |
| 85.4 | M209-D12 (Fab, V domains shown) VH: EVQLLESGGGLVQPGGSLRLSCAASGFTFSHYLMTWVRQAPGKGLEWVSYISPSGGHTIYADSVKGRFTISRDNSKNTLYLQMNSLRAEDTAVYYCATVARGIAARSRTSYFDQWGQGTLVTVSS VL: DIQMTQSPGTLSLSPGERATLSCRTSQFVNSNYLAWYQQTPGQAPRLLIYGASSRATGIPDRFSGTGYGTDFTLTISRLEPEDYGTYYCQQSSRTPWTFGQGTRVEIK |
| 86.8 | M206-F09 (Fab, V domains shown) VH: EVQLLESGGGLVQPGGSLRLSCAASGFTFSVYMMSWVRQAPGKGLEWVSSIVPSGGSTTYADSVKGRFTISRDNSKNTLYLQMNSLRAEDTAVYYCARVARGIAARSRTSYFDYWGQGTLVTVSS VL: DIQMTQSPGTLSLSPGERATLSCRTSQFVNSNYLAWYQQTPGQAPRLLIYGASSRATGIPDRFSGTGYGTDFTLTISRLEPEDYGTYYCQQSSRTPWTFGQGTRVEIK |
| 87.6 | M206-H01 (Fab, V domains shown) VH: EVQLLESGGGLVQPGGSLRLSCAASGFTFSEYMMVWVRQAPGKGLEWVSRISPSGGTTEYADSVKGRFTISRDNSKNTLYLQMNSLRAEDTAVYYCARVARGIAARSRTSYFDYWGQGTLVTVSS VL: DIQMTQSPGTLSLSPGERATLSCRTSQFVNSNYLAWYQQTPGQAPRLLIYGASSRATGIPDRFSGTGYGTDFTLTISRLEPEDYGTYYCQQSSRTPWTFGQGTRVEIK |

Source: patent publication US9266964
